Results on one substance are retold here after article PMC8557876.

The nature of the data set: immunofluorescence colocalisation with ER marker PDI (PCC). Conditions: glycan lost; control: wild-type hACE2, DMSO.

Consider “human ACE2 (hACE2): N90Q/N322Q/N546Q/N53Q/N103Q”, for which the localisation_or_trafficking entry is on record as “changes”.
